Experimental findings from patent US8361965B2, “Recombinant chimeric protein of neutrophil inhibitory factor and hirugen, and pharmaceutical composition thereof” (Lunan Pharmaceutical Group Corporation, priority 2008, dated 2013) are described below.

“Also recorded” adds a separate entry of the source. Where two headings read alike, the source gives them in different places.

The test system of data set [1] is experimental cerebral hematoma in rats. Kind of data set: effects on experimental cerebral hematoma in rats. The data set is classed as in vivo, SD rats. More on the design: key to behavioral score: neurologic defect score, full score 11; higher = more severe disorder. Particulars: for behavioral score / Brain water content (%): 2 mg/kg bid caudal vein; for behavioral score: full score 11; for Brain water content (%): dry and wet method; for degree of pathological change, remaining cases: 2-3 cases per group. The method, then: SD rats were randomly divided into 4 groups (8 animals per group), including model group, NHH group, NIF group and TNHH group. The rats in each group were anesthetized by chloral hydrate, and then 0.1 ml blood was collected by amputation of tail. The rats were fixed in a stereotaxic apparatus. Median incision of scalp was performed and the periosteum was cut open to expose bregma. Subsequently, a small hole with a diameter of 1 mm was perforated for needle insertion of microsyringe fixed on the stereotaxic apparatus with insertion depth of 5.8 mm (i.e to the position of caudate nucleus) at the site which was 1 mm rearward to the bregma and 3 mm left to the midline, and then 0.1 ml autoblood was injected slowly. Neurological functional defect score was immediately evaluated based on the evaluation criterion after the animal got conscious. The animal with behavior score less than 11 was selected in this study. Behavior score evaluation was continuously carried out after the establishment of model till the end of the experiment.
The neurologic function defect score was evaluated at 5 time points of 4 h, 12 h, 24 h, 48 h and 72 h after the model establishment. Changes of brain water content and histopathological observation were performed at 72 h after the model establishment on sacrificed rats.
Corresponding medicaments (2 mg/kg, bid) were administered through the caudal vein to animals with administration volume of 1 ml/100 g in each group after model animal was successfully established (according to the score less than 11 based on the behavior score evaluation), while the model group received physiological saline in the corresponding volume.
The brain was taken out immediately after the sacrifice of animals, and then […] ectocinerea (cortex was removed) at the edge of haematoma was collected. The brain water content was determined using dry and wet method based on the following formula: Brain water content=(wet weight−dry weight)/wet weight×100%
The brain was immediately taken out by decollation at selected time points, and it was sliced up to be 2 mm thick along the coronal section and then fixed in 10% formaldehyde. The slices were stained by regular HE and mounted. Then the pathological changes occurred in pathological region and the neighboring brain tissues were observed.
Evaluation was performed at the time of 4 h, 12 h, 24 h, 48 h and 72 h after surgery. The method was described as follows:
The flection of forelimbs was observed by lifting the rat by its tail. If the forelimbs symmetrically extended toward the floor, the score was 0. While if wrist flection, or elbow inflection, or internal rotation of shoulder, or both elbow inflection and internal rotation of shoulder occurred to forelimbs of the rat on the opposite side of the surgery part, it was evaluated as scores of 1, 2, 3 and 4, respectively.
The animal was placed on flat floor, and then both shoulders were pushed to move towards the opposite side to examine the resistance. If the resistances on both sides were equal and forceful, it was evaluated as 0. While if the resistance decreased slightly, mildly or severely when pushed to the opposite side of the surgery part, it was evaluated as 1, 2 or 3, respectively.
Both forelimbs of the animal were placed on a metal mesh to observe the muscular tension. The rat with equal and forceful muscular tension of both forelimbs was evaluated as 0. In the same way, the rat was evaluated as 1, 2 or 3, respectively with the reduction of muscular tension on the opposite side of the surgery part mentioned above.
The animal tended to keep turning around to one side was evaluated as 1. Based on the evaluation criterion (with full score of 11), the higher the score was evaluated, the more severe the behavior disorder was.

In data set [2] the test system is cerebral ischemia in rats subjected to middle cerebral artery occlusion. It counts as in vivo, Wistar rats. The settings on record: for behavioral score / pathological section of brain (cerebral cortex nerve cells): 2 mg/kg bid caudal vein; for behavioral score: full score 11; for pathological section of brain (cerebral cortex nerve cells): HE, compared with model group.

The target of the next data set is thrombin (Homo sapiens, UniProt P00734). Kind of data set: antithrombin activity, in vitro comparative analysis. The data set is classed as biochemical. Further details: TNHH-G15/n3 and TNHH have the same antithrombin activity.
Another data set deals with leukocyte adhesion. Put plainly: anti-leukocyte adhesion activity, in vitro comparative analysis. Particulars: in vitro. The data set is classed as cell-based.
Setting [3] is: 2 mg/kg bid, brain pathological section.

B1: NIF: Neutrophil inhibitory factor, 257 amino acids; prepared by Chongqing Fujin Biology and Medicine Company (protein)
chain: NEHNLRCPQNGTEMPGFNDSIRLQFLAMHNGYRSKLALGHISITEESESDDDDDFGFLPDFAPRASKMRYLEYDCEAEKSAYMSARNCSDSSSPPEGYDENKYIFENSNNISEAALKAMISWAKEAFNLNKTKEGEGVLYRSNHDISNFANLAWDAREKFGCAVVNCPLGEIDDETNHDGETYATTIHVVCHYPKINKTEGQPIYKVGTPCDDCSEYTKKADNTTSADPVCIPDDGVCFIGSKADYDSKEFYRFREL
With B1, the behavioral score in data set [1] (4 h) is reported as 1.86 ± 0.90; in data set [1] (12 h) it was 2.14 ± 0.90; in data set [1] (24 h), 2.43 ± 0.53; in data set [1] (48 h), 3.14 ± 0.90; in data set [1] (72 h), 4.14 ± 1.68; in data set [2] (4 h), 6.2 ± 0.8. In addition, the behavioral score in data set [2] (8 h) stood at 6.5 ± 1.2; in data set [2] (24 h), 5.5 ± 0.5; in data set [2] (48 h), 5.5 ± 0.4; in data set [2] (72 h), 5.5 ± 0.5. In data set [1] (72 h), the “Brain water content (%)” value came to 79.36 ± 0.47 %. In addition, the “degree of pathological change, remaining cases” value in data set [1] (setting [3]) is on record as “+→++”. Besides, the “degree of pathological change, most cases” value in data set [1] (2 mg/kg bid, brain pathological section, model group mostly ++→+++) is “±→+”. The “pathological section of brain (cerebral cortex nerve cells)” value in data set [2] was “less pathological changes; also recorded: less regular arrangements, a portion of deeply stained nucleus, and some cytoplasmic shrinkage or disappearance”. Moreover, the “Cerebral infarction volume (%)” value in data set [2] (72 h) is 24.9 ± 9.6 %. The antithrombin activity entry in the data set with thrombin is on record as “None”. In the data set on leukocyte adhesion, this molecule showed an anti-leukocyte adhesion activity of 750 Unit/mg.

B2: NHH: bifunctional chimeric protein NIF-(Gly)5-hirugen, 274 amino acids, of Chinese patent application 031011551; control protein (protein)
chain: NEHNLRCPQNGTEMPGFNDSIRLQFLAMHNGYRSKLALGHISITEESESDDDDDFGFLPDFAPRASKMRYLEYDCEAEKSAYMSARNCSDSSSPPEGYDENKYIFENSNNISEAALKAMISWAKEAFNLNKTKEGEGVLYRSNHDISNFANLAWDAREKFGCAVVNCPLGEIDDETNHDGETYATTIHVVCHYPKINKTEGQPIYKVGTPCDDCSEYTKKADNTTSADPVCIPDDGVCFIGSKADYDSKEFYRFRELGGGGGNGDFEEIPEEYL
For B2, the behavioral score in data set [1] (4 h) turned out to be 2.14 ± 0.69; in data set [1] (12 h), 1.86 ± 0.90; in data set [1] (24 h), 2.43 ± 1.00; in data set [1] (48 h), 2.57 ± 0.13; in data set [1] (72 h), 3.57 ± 1.72; in data set [2] (4 h), 8.2 ± 1.7. Further, the behavioral score in data set [2] (8 h) came to 8.2 ± 1.7; in data set [2] (24 h), 8.0 ± 1.4; in data set [2] (48 h) it was 6.5 ± 1.4; in data set [2] (72 h), 5.7 ± 1.2. The “Brain water content (%)” value in data set [1] (72 h) is listed as 78.66 ± 0.55 %. In addition, in data set [1] (setting [3]), the “degree of pathological change, remaining cases” value is recorded as “+→++”. Also, in data set [2], the “pathological section of brain (cerebral cortex nerve cells)” value was “less pathological changes; also recorded: less regular arrangements, a portion of deeply stained nucleus, and some cytoplasmic shrinkage or disappearance”. For the same molecule, in data set [2] (72 h), the “Cerebral infarction volume (%)” value was found to be 25.2 ± 5.2 %. In the data set with leukocyte adhesion, the anti-leukocyte adhesion activity is 650 Unit/mg.
